# B1: Sumo-tagged Drosophila Spd-2 SP2D (Spd-2 697-998), wild type [D. melanogaster] / itself (parent)
# chain: LLPLKVTHTTLCWGSTKLRTDVRKSMQVKNTADKRLVIRLGIQGPGFQLVGTDSSTITLQAMECRSVVINFCPTVCGAAIGALSFYAPPGAHNSNQPGLEIPLYGYGGSASITINGLLKGPVGASFLTIGDVCELSAGPLSANLKFHNKGPLTAFVGISVDSTVLMKLRLSEAFEVRPSRLILPPNSERCVQILFRPNREDLKNILKKTAQVLTLANMRIFCGDEPNRQRMRSLVQRMSSRQREKLTSPMLDSIWGEFPDEQPVRNIGQLNEPPEFILDLVTVVRIIDVALTLNRDFDESSE
# Variants of: B1
# Assay: SEC-MALS
# Settings: with itself; 200 µM protein; read off a plot
row,screen value,Variant
1,46 kDa,LLPLKVTHTTLCWGSTKLRTDVRKSMQVKNTADKRLVIRLGIQGPGFQLVGTDSSTITLQAMECRSVVINFCPTVCGAAIGALSFYAPPGAHNSNQPGLEIPLYGYGGSASITINGLLKGPVGASDLTIGDVCELSAGPLSANLKFHNKGPLTAFVGISVDSTVLMKLRLSEAFEVRPSRLILPPNSERCVQILFRPNREDLKNILKKTAQVLTLANMRIFCGDEPNRQRMRSLVQRMSSRQREKLTSPMLDSIWGEFPDEQPVRNIGQLNEPPEFILDLVTVVRIIDVALTLNRDFDESSE [chain 1 F126D]
2,45 kDa,LLPLKVTHTTLCWGSTKLRTDVRKSMQVKNTADKRLVIRLGIQGPGFQLVGTDSSTITLQAMECRSVVINFCPTVCGAAIGALSFYAPPGAHNSNQPGLEIPLYGYGGSASITINGLLKGDVGASFLTIGDVCELSAGPLSANLKFHNKGPLTAFVGISVDSTVLMKLRLSEAFEVRPSRLILPPNSERCVQILFRPNREDLKNILKKTAQVLTLANMRIFCGDEPNRQRMRSLVQRMSSRQREKLTSPMLDSIWGEFPDEQPVRNIGQLNEPPEFILDLVTVVRIIDVALTLNRDFDESSE [chain 1 P121D]
